Biological target: Drosophila CMP-sialic acid synthetase (CSAS), wild-type, 3xFLAG-tagged (Drosophila)
Assay: SEC; clarified lysate of flies expressing CSAS-FLAG on a calibrated Superdex 75 10/30 HR column; 150 mM NaCl in 20 mM potassium phosphate pH 6.8; fractions analysed by FLAG Western blot

- stoichiometry N: 2
Substance: Drosophila CMP-sialic acid synthetase (CSAS), wild-type, 3xFLAG-tagged (enzyme)
